Data published in article PMC8445599.

Target: FLAG-RepoMan-Ubc9
Assay: co-immunoprecipitation (IP anti-HA, immunoblot anti-FLAG, quantified with ImageJ)
Settings: 293FT cells; lane 18; with CFP-SUMO2(R59E); ratio of SUMOylated to non-SUMOylated FLAG-RepoMan(WT)-Ubc9 co-precipitated with HA-lamin A; input ratio 0.99 (lane …)

Substance: HA–lamin A (WT) (from UniProt P02545) V494E; V495E
- other: SUMOylated/non-SUMOylated: 0.31
